Reference: IntAct's records for PubMed 18617892

B1: Nuclear factor NF-kappa-B p100 subunit (Homo sapiens), Q00653 (parent)
chain: MESCYNPGLDGIIEYDDFKLNSSIVEPKEPAPETADGPYLVIVEQPKQRGFRFRYGCEGPSHGGLPGASSEKGRKTYPTVKICNYEGPAKIEVDLVTHSDPPRAHAHSLVGKQCSELGICAVSVGPKDMTAQFNNLGVLHVTKKNMMGTMIQKLQRQRLRSRPQGLTEAEQRELEQEAKELKKVMDLSIVRLRFSAFLRASDGSFSLPLKPVISQPIHDSKSPGASNLKISRMDKTAGSVRGGDEVYLLCDKVQKDDIEVRFYEDDENGWQAFGDFSPTDVHKQYAIVFRTPPYHKMKIERPVTVFLQLKRKRGGDVSDSKQFTYYPLVEDKEEVQRKRRKALPTFSQPFGGGSHMGGGSGGAAGGYGGAGGGGSLGFFPSSLAYSPYQSGAGPMGCYPGGGGGAQMAATVPSRDSGEEAAEPSAPSRTPQCEPQAPEMLQRAREYNARLFGLAQRSARALLDYGVTADARALLAGQRHLLTAQDENGDTPLHLAIIHGQTSVIEQIVYVIHHAQDLGVVNLTNHLHQTPLHLAVITGQTSVVSFLLRVGADPALLDRHGDSAMHLALRAGAGAPELLRALLQSGAPAVPQLLHMPDFEGLYPVHLAVRARSPECLDLLVDSGAEVEATERQGGRTALHLATEMEELGLVTHLVTKLRANVNARTFAGNTPLHLAAGLGYPTLTRLLLKAGADIHAENEEPLCPLPSPPTSDSDSDSEGPEKDTRSSFRGHTPLDLTCSTKVKTLLLNAAQNTMEPPLTPPSPAGPGLSLGDTALQNLEQLLDGPEAQGSWAELAERLGLRSLVDTYRQTTSPSGSLLRSYELAGGDLAGLLEALSDMGLEEGVRLLRGPETRDKLPSTAEVKEDSAYGSQSVEQEAEKLGPPPEPPGGLCHGHPQPQVH

How the values were obtained:
[1] = variants of: B1; conditions: with fbw1a_human BTRC
[2] = variants of: B1; conditions: with ubc_human UBC

Row | Variant | effect of a mutation on the interaction [1] | effect of a mutation on the interaction [2]
1 | K90R | decreasing interaction | decreasing interaction
2 | K298R | decreasing interaction | decreasing interaction
3 | K689R | decreasing interaction | decreasing interaction
4 | K863R | decreasing interaction | decreasing interaction
